B1: MEPGFVFVLFPTHLSTQHTQREKSILVMGLNLQSAKQSDKQNSKERKKNTQINSQRIPYRQGGQCSKVLSP (peptide)
chain: MEPGFVFVLFPTHLSTQHTQREKSILVMGLNLQSAKQSDKQNSKERKKNTQINSQRIPYRQGGQCSKVLSP
modifications: Drosophila melanogaster
B2: ATGCTTCTTCATAGGCTCTCCAAATTTTGCAAAATTGAAAGAGACATAGTATATATATCTTAG (nucleic acid, listed as Medicago truncatula)
DNA: ATGCTTCTTCATAGGCTCTCCAAATTTTGCAAAATTGAAAGAGACATAGTATATATATCTTAG
modifications: listed as DNA, chemistry not fully specified

Assays:
[1] = system: DmmiR8; assay: Transfected Drosophila melanogaster S2 cells, relative expression of Pre-miR8; type: cell-based
Procedure: S2 cells are cultured in a T75 flask in 12 mL of Schneider's medium (GIBCO), containing 1% of penicillin 100 U/mL and […] (Sigma) and 10% of decomplemented foetal calf serum (30 min at 56° C.). The transient transfections are carried out using the FuGENE® HD transfection kit (Roche), according to the recommendations. Conventionally, 1.5 million S2 cells, previously seeded in 6-well plates (3 ml of medium per well), are transfected with 250 ng of total plasmid DNA. The DNA is brought into contact with the Fugene (3 μl) in 100 μl of OPTIMEM (GIBCO). After 20 minutes, the transfection reagent formed is brought into contact with the cells in the culture medium. The RNA of the cells is extracted 66 h after transfection.

[2] = system: MtmiR171b; assay: Regulation of MtmiR171b by MtmiPEP171b1 in transformed tobacco leaves; type: in vivo, Nicotiana benthamiana; conditions: tobacco expressing MtmiR171b, co-expression of MtmiPEP171b1 (MtmiORF171b ATG vs ATT), FIG. 7
Procedure: In order to determine whether the mechanism of regulation of the microRNAs is conserved in other plant species, the regulation of MtmiR171b by MtmiPEP171b1 was tested in a different cellular model. For this, MtmiR171b and MtmiPEP171b1 were introduced into tobacco leaves.
The accumulation of MtmiR171b was measured in tobacco leaves transformed in order to express MtmiR171b of Medicago truncatula starting from wild-type pri-miRNA capable of producing MtmiPEP171b1, or starting from a mutated version of pri-miRNA incapable of producing MtmiPEP171b1 (in which the start codon ATG of MtmiORF171b has been replaced with ATT) (FIG. 6 and FIG. 20).
The accumulation of pre-MtmiR171b was measured in tobacco leaves transformed in order to express MtmiR171b of Medicago truncatula alone (control), or additionally expressing the wild-type MtmiORF171b of Medicago truncatula (35SmiPEP171b1 ATG), or a mutated version of MtmiORF171b in which the start codon ATG has been replaced with ATT (35SmiPEP171b1 ATT) (FIG. 7 and FIG. 21).
The leaves were watered by spraying with the peptides using peptide solutions at different concentrations (0.01, 0.1, 1 μM), firstly 12h before sampling and then a second time 30 min before sampling.
(§1) The total RNA was extracted from roots of M. truncatula or from tobacco leaves using the extraction kit RNeasy Plant Mini Kit (Qiagen). The reverse transcription was performed using the reverse transcriptase SuperScript II (Invitrogen) starting from 500 ng of total RNA. Three repetitions (n=3) were carried out, each with two technical repetitions. Each experiment was repeated from two to three times. The amplifications by qPCR were carried out using a LightCycler 480 System thermocycler (Roche Diagnostics) by the method described in Lauressergues et al. (Plant J., 72(3): 512-22, 2012).
(§2) The DNA fragments of interest were amplified with Pfu polymerase (Promega). The DNA fragments were cloned using the XhoI and NotI enzymes into a pPEX-DsRED plasmid for an overexpression under the control of the constitutive strong promoter 35S, and using the KpnI-NcoI enzymes into a pPEX GUS plasmid for the reporter genes, by the method described in Combier et al. (Genes & Dev, 22: 1549-1559, 2008).
(§3) The composite plants having roots transformed with Agrobacterium rhizogenes were obtained by the method described in Boisson-Dernier et al. (Mol Plant-Microbe Interact, 18: 1269-1276, 2005). The transformed roots were verified and selected by observations of DsRED with a binocular fluorescence magnifier. The control roots correspond to roots transformed with A. rhizogenes not containing the pPEX-DsRED vector. Transformation of the tobacco leaves was carried out by the method described in Combier et al. (Genes & Dev, 22: 1549-1559, 2008).

[3] = system: Medicago truncatula; assay: Number of lateral roots in M. truncatula; type: in vivo; conditions: overexpression of MtmiPEP171b1 (MtmiORF171b), vs control plant
Procedure: The surface of seeds of M. truncatula was sterilized and they were left to germinate on agar plates for 5 days at 4° C. in the dark. […] The lateral roots were counted every day. […] The mean values of the relative expression of the genes or of the production of lateral roots were analysed using the Student test or the Kruskal-Wallis test. The error bars represent the SEM (Standard Error of the Mean). The asterisks indicate a significant difference (p<0.05).

[4] = system: MtmiR171b; assay: Overexpression of MtmiPEP171b1 (MtmiORF171b) in M. truncatula roots, relative expression by qRT-PCR; type: in vivo, Medicago truncatula; conditions: vs control plant
Procedure: as §1, §2, §3

| Molecule | expression of DmmiR8 (relative expression of Pre-miR8) ([1]; D. melanogaster cells overexpressing DmmiPEP8 vs miPEP8 with mutated start codons) | expression of DmmiR8 (relative expression of Pre-miR8) ([1]; D. melanogaster cells overexpressing wild-type DmmiR8 vs DmmiR8 with mutated miPEP8 start codons) | relative expression of pre-MtmiR171b (expression of MtmiR171b) [2] | number of lateral roots [3] | accumulation of MtmiR171b [4] | expression of the HAM1 gene [4] | expression of the HAM2 gene [4] |
| --- | --- | --- | --- | --- | --- | --- | --- |
| B1 | increases | increases |  |  |  |  |  |
| B2 |  |  | increase | reduction | increase | reduction | reduction |
